We go through 23 sequences from the DeepSol protein solubility set.

The nature of this data set: soluble on expression in E. coli; label from the status in PepcDB or PDB records.
“SEGSGEQPGPQPQHPGDHRIRDGDFVVLKREDVFKAVQVQRRKKVTFEKQWFYLDNVIGHSYGTAFEVTSGGSLQPKKKREEPTAETKEAGTDNRNIVDDGKSQKLTQDDIKALKDKGIKGEEIVQQLIENSTTFRDKTEFAQDKYIKKKKKKYEAIITVVKPSTRILSIMYYAREPGKINHMRYDTLAQMLTLGNIRAGNKMIVMETCAGLVLGAMMERMGGFGSIIQLYPGGGPVRAATACFGFPKSFLSGLYEFPLNKVDSLLHGTFSAKMLSSEPKDSALVEESNGTLEEKQASEQENEDSMAEAPESNHPEDQETMETISQDPEHKGPKERGSKKDYIQEKQRRQEEQRKRHLEAAALLSERNADGLIVASRFHPTPLLLSLLDFVAPSRPFVVYCQYKEPLLECYTKLRERGGVINLRLSETWLRNYQVLPDRSHPKLLMSGGGGYLLSGFTVAMDNLKADTSLKSNASTLESHETEEPAAKKRKCPESDS”: the “soluble on expression in E. coli” value is “soluble”.

Consider “MSTFRLITGGIGTGKTLWTVEQLFKLKNLTPDRLVYTDITGIKHTGVTVVPPDFDWRNVEDNSLIIFDEVQYKELFSRHNSKRDKQILDLTTMRKRGIEIWCITQRARFLNQDVLGLVNEHIHLEKTGDKTARVYIWHEAETNITKTKKMFPFEKYVWQHPTDLYGFYESIKPDA”, for which the “soluble on expression in E. coli” value is “not soluble”.

In the case of “EEHLSVMYERLRQELPKLFLQSHDYSLYSLDVEFINEILNIRTKGRTWYILSLTLCRFLAWNYFAHLRLEVLQLTRHPENWTLQARWRLVGLPVHLLFLRFYKRDKDEHYRTYDAYSTFYLNSSGLI”, the “soluble on expression in E. coli” value is reported as “soluble”.

Take “MSLAIRQHVGALFTDLYEVTMAQAYWAERMSGTAVFEIFFRKLPPGRSYIMAAGLADVVEFLEAFRFDEQDLRYLRGLGQFSDEFLRWLAGVRFTGDVWAAPEGTVIFPNEPAVQLIAPIIEAQLVETFVLNQIHLQSVLASKAARVVAAARGRPVVDFGARRAHGTDAACKVARTSYLAGAAGTSNLLAARQYGIPTFGTMAHSFVQAFDSEVAAFEAFARLYPATMLLVDTYDTLRGVDHVIELAKRLGNRFDVRAVRLDSGDLDELSKATRARLDTAGLEQVEIFASSGLDENRIAALLAARCPIDGFGVGTQLVVAQDAPALDMAYKLVAYDGSGRTKFSSGKVIYPGRKQVFRKLEHGVFCGDTLGEHGENLPGDPLLVPIMTNGRRIRQHAPTLDGARDWARQQIDALPPELRSLEDTGYSYPVAVSDRIVGELARLRHADTAEAHPGSNVVGAKAKRPEGHHHHHH”: the “soluble on expression in E. coli” value was “not soluble”.

With “MEINADFTKPVVIDTDQLEWRPSPMKGVERRMLDRIGGEVARATSIVRYAPGSRFSAHTHDGGEEFIVLDGVFQDEHGDYPAGTYVRNPPTTSHVPGSAEGCTIFVKLWQFDPADRTQFSKNMEAELGAPVEGISTSLLHEDERETVTHRKLEPGANLTSEAAGGIEVLVLDGDVTVNDEVLGRNAWLRLPEGEALSATAGARGAKIWMKTGHLRFVRTPEV”, the “soluble on expression in E. coli” value is listed as “soluble”.

With “MTITPATHAISINPATGEQLSVLPWAGADDIENALQLAAAGFRDWRETNIDYRAEKLRDIGKALRARSEEMAQMITREMGKPINQARAEVAKSANLCDWYAEHGPAMLKAEPTLVENQQAVIEYRPLGTILAIMPWNFPLWQVMRGAVPIILAGNGYLLKHAPNVMGCAQLIAQVFKDAGIPQGVYGWLNADNDGVSQMIKDSRIAAVTVTGSVRAGAAIGAQAGAALKKCVLELGGSDPFIVLNDADLELAVKAAVAGRYQNTGQVCAAAKRFIIEEGIASAFTERFVAAAAALKMGDPRDEENALGPMARFDLRDELHHQVEKTLAQGARLLLGGEKMAGAGNYYPPTVLANVTPEMTAFREEMFGPVAAITIAKDAEHALELANDSEFGLSATIFTTDETQARQMAARLECGGVFINGYCASDARVAFGGVKKSGFGRELSHFGLHEFCNIQTVWKDRI”, the “soluble on expression in E. coli” value is listed as “soluble”.

In the case of “MSWLKEVIGTEKAVIAMCHLRALPGDPSFDAQLGMNWVIDKAWDDLMALQNGGVDAVMFSNEFSLPYLTKVRPETTAAMARIIGQLMSDIRIPFGVNVLWDPVASFDLAMATGAKFIREIFTGAYASDFGVWDTNVGETIRHQHRIGAGEVKTLFNIVPEAAVYLGNRDICSIAKSTVFNNHPDALCVSGLTAGTRTDSALLKRVKETVPDTVVLANTGVCLENVEEQLSIADGCVTATTFKKDGVFANFVDQARVSQFMEKVHHIRR”, the “soluble on expression in E. coli” value is on record as “not soluble”.

Regarding “MGFDFLGFTVRQFPVGKYHSGKSSSGKLLGYKTLITPSKAKLKIHAQKIGKLIDEHKAVPQSDLIAHLNPVIRGWTNYYSCVVSKRIFNQADTTLFSQLKAWAEHRHPNKSSRWSCQKYWQTVGSDNWVFKPHNQKIRLLKHRETRLEHHHHHH”, the “soluble on expression in E. coli” value was “soluble”.

“ADEFGNGDALDLPVGKDAVNSLIRENSHIFSDTQCKVCSAVLISESQKLAHYQSRKHANKVRRYMAINQGEDSVPAKKFKAAPAEISDGEDRSKCCPVCNMTFSSPVVAESHYIGKTHIKNLRLREQ”: the “soluble on expression in E. coli” value is listed as “soluble”.

With “MGHHHHHHSHMILEIRTKNFIFRTKHKLDFTPIGCDAKGRIVLGYTEAELCTRGSGYQFIHAADMLYCAESHIRMIKTGESGMIVFRLLTKNNRWTWVQSNARLLYKNGRPDYIIVTQRPLTDEEGTEHLRKRNTKLPFMF”, the “soluble on expression in E. coli” value is listed as “soluble”.

Regarding “MIQRDIEYSGQYSKDVKLAQKRHKDMNKLKYLMTLLINNTLPLPAVYKDHPLQGSWKGYRDAHVEPDWILIYKLTDKLLRFERTGTHAALFGLEHHHHHH”, the “soluble on expression in E. coli” value was “soluble”.

For the sequence “MNKLNICIDIDGTITSPYHFLPYLNDIFNKNITEAECITHNWEELYGSGIRDVYAEFNNKYIHSYDEAKIVEGATEVISTLSKGHNLSFVTARHECLTDVTKNWLSRQGFSDIDVYLLGSDYKVEKARELSCDIFIEDNPLNSVQLADDGVKVILLDTNYNKDVKHQNIVRVSNWIDIEKIIKQGI”, the “soluble on expression in E. coli” value is “not soluble”.

For the sequence “MIAVIFEVWPAEGEKQHYLDIAAGLRAELETIDGFLSIERFQSISNPEKMLSLSFFRDEQAVRAWRNTLPHRTAQALGRSGVFSDYRLRIAHVIRDYGLLEREEAPADSRDAHPVEGSSLG”, the “soluble on expression in E. coli” value is recorded as “not soluble”.

Regarding “MQFIKNLQLNKKKDSDSSEQVLTNKKNKMKYEDFNFIRTLGTGSFGRVILATYKNGNYPPVAIKRFEKCKIIRQKQVDHVFSERKILNYINHPFCVNLHGSFKDDSYLYLVLEFVIGGEFFTFLRRNKRFPNDVGCFYAAQIVLIFEYLQSLNIVYRDLKPENLLLDKDGFIKMTDFGFAKIVETRTYTLCGTPEYIAPEILLNVGHGKAADWWTLGIFIYEILVGCPPFYANEPLLIYQKILEGIIYFPKFLDNNCKHLMKKLLSHDLTKRYGNLKKGAQNVKEHPWFSNIDWVNLLNKNVEVPYKPKYKNIFDSSNFERVQEDLTIADKITNENDPFYDW”, the “soluble on expression in E. coli” value is on record as “not soluble”.

Regarding “MPKRGLDVSSCEIFRFYKLITTKSLIEPVSMIVPRRSESYQEDIYPPTAAAQPSLTAHEWLSGMNRGKGGWEQAARLGNWSPGGPK”, the “soluble on expression in E. coli” value was “not soluble”.

Regarding “MISENYSRNLVGYGRNAPDPKWPGGARIAVQFVINYEEGGESCILDNDKASESLLSEIVGAQPWPGQRNLNMESIYEYGSRAGFWRLWRMFTGLGVTTTVYGVTAAMARNPEAVAAMKEAGWEIASHGYRWLEYKDFSEEEERKHIVEAVHLHTELTGERPYGMYQGKPSDNTLRLVMEEGGFLYSSDSYADDLPYWVKGVGDEPFLIIPYTLDTNDMRFATPQGFNSGDQFFTYLKDAFDVLYQEGVEGAPKMMSIGLHCRLVGRPGRAAALRRFIEYVLGHEKVWIPQRLEIARHWHEHHKPETP”, the “soluble on expression in E. coli” value is given as “not soluble”.

On to “MKKSSILILIIICLVGCKKGSNETTITGEIKGLGTDTLYLYGMDELYDRIDTIYVENDKFSYTTSVDTITSAYLLLKNRIEYPVFLDKGNKIKIKGDTINLNFLTISGNIYNEEFTDFQKALEDPADPSEKAGEETVDKRITVEKANTAEEMAEEFILQHHSSYVSLYLLDKYFVQKETPDFSKIKKLVEVMTGVLQDKPYIERLNETITQAEKSEIGKYAPFFSLPNAKGEKITRSSDAFKQKSLLINFWASWNDSISQKQSNSELREIYKKYKKNKYIGMLGISLDVDKQQWKDAIKRDTLDWEQVCDFGGLNSEVAKQYSIYKIPANILLSSDGKILAKNLRGEELKKKIENIVEEATEKEKKNKQKK”, for which the “soluble on expression in E. coli” value was “not soluble”.

Consider “SLGTLPPELQNTCVARGKLPLLLDLDNTLLHAQAASATGCDVRLQDWIDPYGEPELYRFELPCNRKTYYMKLRPHLRTFLKKLEPFYEMSVYTNATQEYADIVIAILDGNRQLFQDRIVARDSGFRGEASENKAVRRLYEGMDKRCIVAFDDRQNIWTDLPLTHVVKAQHYDFFDSHKTELNAYYPPLSNGIEGMTAPDVLGNRQNED”, for which the “soluble on expression in E. coli” value is listed as “soluble”.

“MSRRNATSFVDNNTLTSSEGLTSGVFSWALERLPTCLREELQLPLTDTGSCWQTN”: the “soluble on expression in E. coli” value was “not soluble”.

Regarding “MGSSHHHHHHGGTGENLYFQGGSGLRRTEIALKKGWTHNPGHTRRGGKNLAWRPKISDAKLSQFVPLALVHPRRHPNNWQERQFNALGYTKWPKDIGFYNAGDNFEVTPEAAWRLYVHARDEPYWGKLHCEKTIITLLPVVEKAPKENMERVLDVFRHYLKRYGADHYIYNAVMQAAAFAKNYEQAEQLFKEMETLGLEPNAQSYVNMMLAAKLCGLPPEKSEAYFKRAVKDGAMQSVMRMDTEFRMWMDQLDRLGSFTASSGYLSVNEEGAKPMPRDMWAIWGWHRSESKFISRRDLIMQQVRARVHSGKELVGTVYTKTRRQPWAKFNGMLRHDYNGPSYRAPTIFPDAPEYTNEAGHKAF”, the “soluble on expression in E. coli” value is on record as “soluble”.

As to “MSLKVTMEFIANQLGITKNTVSLALRNMPGVSEKTRKEILRTAEKYGYIYKKSNSKNSKSNSRTGSICLMLSNDTKNSVGFFSFIQYGVESEGKRNGLNTILYCFDDNKEFQPPVCIRDGIVSGIITLGRISRKTVSSIISLNLPLVIVDDFFDDIKASYVLTDNLSGGYTATEYLIKSGHRSIGFFGDIFASPSFFDRYMGYLKAHVQYNLPVNSSFSIIDKNMAVLLHEGVDKVVDELKKIPQLPTAMFCCNDVEAIALYKAFSVMGISVPDDISIIGFDDIESSTSVSPELTTMHINKEAMGERAVKKLIEKMNGQESMDEKIVLPVTLIERQSVKREGHHHHHH”, the “soluble on expression in E. coli” value is “soluble”.

Regarding “MSTLGDLLAEHTVLPGSAVDHLHAVVGEWQLLADLSFADYLMWVRRDDGVLVCVAQCRPNTGPTVVHTDAVGTVVAANSMPLVAATFSGGVPGREGAVGQQNSCQHDGHSVEVSPVRFGDQVVAVLTRHQPELAARRRSGHLETAYRLCATDLLRMLAEGTFPDAGDVAMSRSSPRAGDGFIRLDVDGVVSYASPNALSAYHRMGLTTELEGVNLIDATRPLISDPFEAHEVDEHVQDLLAGDGKGMRMEVDAGGATVLLRTLPLVVAGRNVGAAILIRDVTEVKRRDRALISKDATIREIHHRVKNNLQTVAALLRLQARRTSNAEGREALIESVRRVSSIALVHDALSMSVDEQVNLDEVIDRILPIMNDVASVDRPIRINRVGDLGVLDSDRATALIMVITELVQNAIEHAFDPAAAEGSVTIRAERSARWLDVVVHDDGLGLPQGFSLEKSDSLGLQIVRTLVSAELDGSLGMRDARERGTDVVLRVPVGRRGRLML”, the “soluble on expression in E. coli” value is “not soluble”.

For the sequence “AKKIGLFYGTQTGKTESVAEIIRDEFGNDVVTLHDVSQAEVTDLNDYQYLIIGCPTENIGELQSDWEGLYSELDDVDFNGKLVAYFGTGDQIGYADNFQDAIGILEEKISQRGGKTVGYWSTDGYDFNDSKALRNGKFVGLALDEDNQSDLTDDRIKSWVAQLKSEFGL”, the “soluble on expression in E. coli” value is on record as “soluble”.
